# T1: CD79b on target B cell lines (Ramos (CD79b+) cells; Daudi cells) (UniProt P40259 29-229, limits assumed)
# T1 construct: whole, on cells; On cells CD79b stands in the B cell receptor complex with CD79a; also called Ramos (CD79+) cells; CD79b expression cells
# T1 sequence (looked up): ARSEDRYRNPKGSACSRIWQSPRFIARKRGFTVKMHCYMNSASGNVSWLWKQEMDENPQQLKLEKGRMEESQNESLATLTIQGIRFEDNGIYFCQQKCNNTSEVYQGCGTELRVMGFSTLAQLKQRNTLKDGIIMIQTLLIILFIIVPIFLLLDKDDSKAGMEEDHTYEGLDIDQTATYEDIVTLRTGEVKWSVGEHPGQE
# B1: ch44G2/ch6-1 Fc-silenced (bispecific antibody, human IgG1, kappa, L234A L235A)
# heavy: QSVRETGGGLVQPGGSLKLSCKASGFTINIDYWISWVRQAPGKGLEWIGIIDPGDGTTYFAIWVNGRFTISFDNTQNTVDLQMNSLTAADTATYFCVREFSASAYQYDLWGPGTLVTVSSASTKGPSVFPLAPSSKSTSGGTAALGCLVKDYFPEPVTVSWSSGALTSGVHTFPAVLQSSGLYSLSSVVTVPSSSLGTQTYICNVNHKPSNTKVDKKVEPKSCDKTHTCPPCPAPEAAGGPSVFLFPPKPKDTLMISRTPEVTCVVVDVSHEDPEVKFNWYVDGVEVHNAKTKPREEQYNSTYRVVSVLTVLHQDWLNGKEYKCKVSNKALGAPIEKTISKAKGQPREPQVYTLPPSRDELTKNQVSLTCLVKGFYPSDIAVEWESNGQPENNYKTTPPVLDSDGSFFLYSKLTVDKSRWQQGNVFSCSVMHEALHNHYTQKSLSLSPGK
# light: DLVMTQTPSSVSAAVGGTVSINCRASEDIENYLAWYQQKPGQPPKLLIYRASTLSSGVSSRFSGSGSGTEFTLTISGVQPDDAATYYCQQGYRNSNVDNPFGGGTEMVVKRTVAAPSVFIFPPSDEQLKSGTASVVCLLNNFYPREAKVQWKVDNALQSGNSQESVTEQDSKDSTYSLSSTLTLSKADYEKHKVYACEVTHQGLSSPVTKSFNRGECGGGGSGGGGSGGGGSGGGGSADVVMTQTPASVSEPVGGTITINCQASENIYSSLAWYQQKPGQPPKLLMYDVSDLASGVPSRFSGSGSGTEFALTISDVQPDDAATYFCLGGYPSNNYRMAFGGGTEVVVKGGGGSGGGGSGGGGSGGGGSQSLEESGGGLVQPEGSLTLTCTASGFSFSSSAWICWVRQAPGKGLEWIGCINTVSVNAYYASWAKGRFTISKTSSTTVTLQVTSLTAADTATHFCARNPYNSLRLWGPGTLVTVSS
# notes: LC format, LALAPG silenced Fc; also called CD79b/NKp46 bispecific antibody; 44G2/6-1
# B2: ch44G2/ch5-13 Fc-silenced (bispecific antibody, human IgG1, kappa, L234A L235A)
# heavy: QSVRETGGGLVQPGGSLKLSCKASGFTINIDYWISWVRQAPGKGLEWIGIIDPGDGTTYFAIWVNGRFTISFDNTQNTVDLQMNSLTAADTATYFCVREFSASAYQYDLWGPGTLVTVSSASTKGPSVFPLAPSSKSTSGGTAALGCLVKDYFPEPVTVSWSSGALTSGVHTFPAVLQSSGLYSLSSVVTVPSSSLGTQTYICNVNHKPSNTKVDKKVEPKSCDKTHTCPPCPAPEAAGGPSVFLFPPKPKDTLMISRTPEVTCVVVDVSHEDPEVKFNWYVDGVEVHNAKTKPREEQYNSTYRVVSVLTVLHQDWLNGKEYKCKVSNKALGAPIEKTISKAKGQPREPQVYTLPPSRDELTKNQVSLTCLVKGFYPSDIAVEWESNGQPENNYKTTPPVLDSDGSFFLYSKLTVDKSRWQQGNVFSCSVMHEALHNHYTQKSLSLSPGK
# light: DLVMTQTPSSVSAAVGGTVSINCRASEDIENYLAWYQQKPGQPPKLLIYRASTLSSGVSSRFSGSGSGTEFTLTISGVQPDDAATYYCQQGYRNSNVDNPFGGGTEMVVKRTVAAPSVFIFPPSDEQLKSGTASVVCLLNNFYPREAKVQWKVDNALQSGNSQESVTEQDSKDSTYSLSSTLTLSKADYEKHKVYACEVTHQGLSSPVTKSFNRGECGGGGSGGGGSGGGGSGGGGSAYDMTQTPASVEVAVGGTVTIKCQASQSISTALAWYQQKPGQPPKLLIYKASTLASGVSSRFKGSGSGTQFTLTISGVEPADAATYYCQQGYSRSNVDNVFGGGTEVVVKGGGGSGGGGSGGGGSGGGGSQSVEESGGRLVTPGTPLTLTCTVSGFSLSSYHMSWVRQAPGKGLEWIGYILANTDSYYANWAKGRFTISKTSTTVDLKITSPTTEDTATYFCARYDNHDAAYSTLWGPGTLVTVSS
# notes: LC format, LALAPG silenced Fc; also called CD79b/NKp46 bispecific antibody; 44G2/5-13
# B3: ch5-13 (antibody, human IgG1, kappa, V domains shown)
# VH: QSVEESGGRLVTPGTPLTLTCTVSGFSLSSYHMSWVRQAPGKGLEWIGYILANTDSYYANWAKGRFTISKTSTTVDLKITSPTTEDTATYFCARYDNHDAAYSTLWGPGTLVTVSS
# VL: AYDMTQTPASVEVAVGGTVTIKCQASQSISTALAWYQQKPGQPPKLLIYKASTLASGVSSRFKGSGSGTQFTLTISGVEPADAATYYCQQGYSRSNVDNVFGGGTEVVVKR
# notes: Chimeric rabbit/human IgG1; also called chimeric anti-NKp46 antibody ch5-13
# B4: rabbit anti-NKp46 clone 5-13 (expressed and purified as rabbit IgG) (antibody, V domains shown)
# VH: B3 VH
# VL: AYDMTQTPASVEVAVGGTVTIKCQASQSISTALAWYQQKPGQPPKLLIYKASTLASGVSSRFKGSGSGTQFTLTISGVEPADAATYYCQQGYSRSNVDNVFGGGTEVVVK
# notes: Rabbit IgG
# B5: ch3-7 (antibody, human IgG1, kappa, V domains shown)
# VH: QSLEESGGRLVTPGTPLTLTCTVSGFSPSSYYMSWVRQAPGKGLEYIGIIFSGGSTWYASWAKGRVTISRTSTTVDLKMTSLTTEDTATYFCARGDAVGSGYWGLWGPGTLVTVSS
# VL: AFELTQTPSSVEAAVGGTVTINCQASQDIYIYLAWYQQKPGQPPKLLIYSASTLASGVSSRFTGSRSGTQFTLTISDLEPADAATYYCQSYDGTSNTGFGGGTEVVVRR
# notes: Chimeric rabbit/human IgG1; also called chimeric anti-NKp46 antibody ch3-7
# B6: rabbit anti-NKp46 clone 3-7 (expressed and purified as rabbit IgG) (antibody, V domains shown)
# VH: B5 VH
# VL: AFELTQTPSSVEAAVGGTVTINCQASQDIYIYLAWYQQKPGQPPKLLIYSASTLASGVSSRFTGSRSGTQFTLTISDLEPADAATYYCQSYDGTSNTGFGGGTEVVVR
# notes: Rabbit IgG
# How the values were obtained:
# [1] = target: T1, CD79b on target B cell lines (Ramos …); test: flow cytometry on Ramos cells, anti-human IgG PE
# [2] = target: T2, human NKp46 expressed on cells (primary human NK cells; CHOK1-hNKp46 cells) (human, UniProt O76036 22-304); test: flow cytometry on purified CD56+ human NK cells, anti-human IgG PE
# T2 construct: whole, on cells; also called cell surface expressed NKp46; NCR1
# [3] = target: T3, Recombinant human NKp46, His Tag (human NKp46 ECD antigen, aa. 22-254, his-tagged) (human, UniProt O76036 22-255); test: ELISA on coated NKp46-His, and BLI with antibody on anti-human IgG Fc probe and 11 nM NKp46-His
# T3 construct: also called NKp46 extracellular domain (ECD); Acrobiosystems #NC1-H52H4; not shown: His tag
# [4] = target: T2, human NKp46 expressed on cells (primary …); test: flow cytometry on primary human NK cells, rabbit IgG, anti-rabbit IgG FITC
# T2 sequence (O76036 22-304): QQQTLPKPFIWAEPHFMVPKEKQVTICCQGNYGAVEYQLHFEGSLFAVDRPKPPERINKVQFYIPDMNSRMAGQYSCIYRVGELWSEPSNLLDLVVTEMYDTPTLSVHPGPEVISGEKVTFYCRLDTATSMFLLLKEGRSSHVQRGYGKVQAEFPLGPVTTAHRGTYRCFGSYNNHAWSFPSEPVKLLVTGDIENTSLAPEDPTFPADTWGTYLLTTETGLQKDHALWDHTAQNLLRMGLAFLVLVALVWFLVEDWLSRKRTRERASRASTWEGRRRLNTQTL
# T3 sequence (O76036 other isoform, or with tags, fused parts or gaps): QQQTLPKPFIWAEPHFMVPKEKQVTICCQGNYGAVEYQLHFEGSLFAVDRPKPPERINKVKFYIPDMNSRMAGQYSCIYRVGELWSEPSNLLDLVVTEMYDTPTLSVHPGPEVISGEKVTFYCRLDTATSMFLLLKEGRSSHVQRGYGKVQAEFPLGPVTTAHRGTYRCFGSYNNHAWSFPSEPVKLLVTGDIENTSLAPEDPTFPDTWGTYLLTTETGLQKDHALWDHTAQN
Binder,binding result [1],binding result [2],binding result [3],binding result [4]
B1,binds,binds,–,–
B2,binds,binds,–,–
B3,–,–,binds,–
B4,–,–,–,binds
B5,–,–,binds,–
B6,–,–,–,binds
